Here are results for 2 molecules from patent publication US20240425569A1 (VISTERRA, published 2024).

Broadly, the Kd is the equilibrium constant for the complex coming apart.

Test [1] has as its target T1, EDIII-DV4 (E protein domain III of dengue virus serotype DV-4) (dengue virus serotype DV-4, UniProt P09866 572-679).
T1 construct: also called DENV-4
Description: affinity for EDIII, table of FIG. 4; method not stated.

Test [2] concerns the target T1, EDIII-DV4 (E protein domain III of …).
For test [3], the target named is T2, EDIII-DV3 (E protein domain III of dengue virus serotype DV-3) (dengue virus serotype DV-3, UniProt P27915 571-678).
T2 construct: also called DENV-3; EDIII of DV-3

Test [4] has as its target T3, EDIII-DV2 (E protein domain III of dengue virus serotype DV-2) (dengue virus serotype DV-2, UniProt P14337 573-677).
T3 construct: also called DENV-2; EDIII of DV-2

For test [5], the target named is T4, EDIII-DV1 (E protein domain III of dengue virus serotype DV-1) (dengue virus serotype DV-1, UniProt P17763 573-680).
T4 construct: also called DENV-1; EDIII of DV-1
T4 chain: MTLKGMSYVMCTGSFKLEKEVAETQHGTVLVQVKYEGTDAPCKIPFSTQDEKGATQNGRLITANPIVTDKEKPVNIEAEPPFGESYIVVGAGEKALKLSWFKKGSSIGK

Test [6] deals with T2, EDIII-DV3 (E protein domain III of …). Description: competition ELISA. In general terms: An ELISA detects its analyte on a solid surface through an enzyme-linked reagent.
In test [7] the target is T3, EDIII-DV2 (E protein domain III of …). As to the kind of experiment: competition ELISA.
Test [8] addresses T4, EDIII-DV1 (E protein domain III of …). Description: competition ELISA.
Test [9] addresses T5, Peru/1995 (serotype II EDIII).
T5 construct: also called ED3-DV2/Peru95; DENV-2 Peru
As to the kind of experiment: Kd table, method not stated; Ag DENV-2 Peru.

Test [10] has as its target T1, EDIII-DV4 (E protein domain III of …). This is another data set of the same source.
The target of test [11] is T6, New Caledonia/2009 (serotype IV EDIII).
T6 construct: also called ED3-DV4/NewCal09; DENV-4 NC
T6 E protein domain III (EDIII): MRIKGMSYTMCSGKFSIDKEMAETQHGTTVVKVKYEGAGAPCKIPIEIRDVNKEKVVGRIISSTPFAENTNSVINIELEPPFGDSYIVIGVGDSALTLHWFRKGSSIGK
Description: Kd table, method not stated; Ag DENV-4 NC.

The target of test [12] is T7, New Guinea/1944 (NGC)* (serotype II EDIII) (Dengue virus 2).
T7 construct: isolated EDIII protein; also called EDIII of DENV-2 NGC
Description: Kd table, method not stated; Ag DENV-2 NGC.

Test [13] has as its target T1, EDIII-DV4 (E protein domain III of …). Description: competition ELISA; column 'EDIII-DV4'.
Test [14] has the same target. As to the kind of experiment: competition ELISA; column 'EDIII-DV4 [1/7]'.
Test [15] has as its target T8, Singapore/2010 (serotype IV EDIII).
T8 construct: also called ED3-DV4/Sing10; DENV-4 Sing
T8 E protein domain III (EDIII): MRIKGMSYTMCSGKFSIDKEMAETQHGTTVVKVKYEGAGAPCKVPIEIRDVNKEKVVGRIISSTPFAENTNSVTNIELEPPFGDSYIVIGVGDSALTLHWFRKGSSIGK
As to the kind of experiment: Kd table, method not stated; Ag DENV-4 Sing.

Test [16] deals with T9, Nicaragua/2010 (serotype III EDIII).
T9 construct: also called ED3-DV3/Nicaragua10; DENV-3 Nic
T9 E protein domain III (EDIII): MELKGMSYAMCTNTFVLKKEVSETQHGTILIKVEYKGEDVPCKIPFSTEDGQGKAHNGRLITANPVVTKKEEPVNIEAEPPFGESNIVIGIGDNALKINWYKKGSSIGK

For test [17], the target named is T10, Singapore/2008 (serotype II EDIII).
T10 construct: also called ED3-DV2/Sing08; DENV-2 Sing
Description: Kd table, method not stated; Ag DENV-2 Sing.

The target in test [18] is T1, EDIII-DV4 (E protein domain III of …). The source holds these as a separate data set.
Test [19] addresses ED3-DV4/H241/Phil56 (EDIII of DENV-4 strain H241) (dengue virus serotype DENV-4, strain …, UniProt Q58HT7 572-679). As to the kind of experiment: Kd table, method not stated; Ag DENV-4 Phil.
Test [20] addresses T11, Philippines/1956 (H87)* (serotype III EDIII) (Dengue virus 3).
T11 construct: isolated EDIII protein

Test [21] deals with T12, Singapore/2009 (serotype III EDIII).
T12 construct: also called ED3-DV3/Sing09; DENV-3 Sing
T12 E protein domain III (EDIII): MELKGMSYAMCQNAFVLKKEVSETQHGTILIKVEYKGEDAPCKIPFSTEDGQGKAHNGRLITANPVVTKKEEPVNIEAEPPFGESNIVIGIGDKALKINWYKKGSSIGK

The target in test [22] is T1, EDIII-DV4 (E protein domain III of …). The source holds these as a separate data set.
The target of test [23] is T2, EDIII-DV3 (E protein domain III of …). The source holds these as a separate data set.
The target of test [24] is T4, EDIII-DV1 (E protein domain III of …). As to the kind of experiment: SPR (FIG. 9), by context.
Test [25] has as its target T13, Mexico/1977 (BC287/97)* (serotype IV EDIII) (Dengue virus 4).
T13 construct: isolated EDIII protein; also called EDIII of DENV-4 Mexico/1997 (BC287/97); DENV-4 BC2
Description: Kd table, method not stated; Ag DENV-4 BC2.

Where two headings read alike, the source gives them in different places.

B1: antibody B48+A98V (antibody, V domains shown)
VH: QVQLVQSGAEVKKPGASVKVSCKAGFNIKDTYMSWVRQAPEQGLEWMGRIDPENGDTKYDPKLQGRVTMTADTSTNTAYMELRSLRSDDTAVYYCVRGWEGFAYWGQGTLVTVSS
VL: DIVMTQSPASLAVSLGERATISCRASENVDKYGNSFMHWYQQKPGQPPKLLIYRASELQWGVPDRFSGSGSGTDFTLTISSLQAEDVAVYYCQRSNEVPWTFGQGTKLEIK
On to B1, for which the “fold improvement in binding relative to antibody B48” value in [1] was around 5 fold. Further, the Kd is 9.26 nM in test [2], 5.06 nM in test [3], below 0.1 nM in test [4] and below 0.1 nM in test [5].

B2: antibody C88 (antibody, V domains shown)
VH: QVQLVQSGAEVKKPGASVKVSCKASGFNIKDVYMSWVRQAPEQGLEWMGRIDPENGDTKYDPKLQGRVTMTADTSTNTAYMELRSLRSDDTAVYYCARGWEGFAYWGQGTLVTVSS
VL: DIVMTQSPASLAVSLGERATISCRASENVDKYGNSFMHWYQQKPGQPPKLLIYRASELQWGVPDRFSGSGSGTDFTLTISSLQAEDVAVYYCQRSNEVPWTFGQGTKLEIK
As to B2, the Kd in test [6] is 1.06 nM; in [7] it was below 0.1 nM; in test [8], below 0.1 nM; in [9] it was 0.38 nM; in test [10], 13 nM; in test [11], 11.3 nM. Also, the Kd in [12] is below 0.1 nM; in test [13], 15.4 nM; in test [14], 13 nM; in [15], 15 nM; in test [16], 3.2 nM; in test [17] it was below 0.1 nM. The Kd amounted to 13 nM in test [18]; 234 nM in [19]; 1.5 nM in test [20]; 1 nM in [21]; 23.8 nM in [22]; 0.97 nM in test [23]. The same molecule displayed a Kd in [25] of 10.6 nM. Moreover, the “fold greater affinity than C98” value in test [24] was around 20 fold.
